Reference: the supplement of paper PMC12783771
± gives the standard deviation of the averaged measurements.

B1: library; numbered along this chain (parent)
chain: MNIQIGELAKRTACPVVTIRFYEQEGLLPPPGRSRGNFRLYGEEHVERLQFIRHCRSLDMPLSDVRTLLSYRKRPDQDCGEVNMLLDEHIRQVESRIGALLELKHHLVELREACSGARPAQSCGILQGLSDCVCDTRGTTAHPSD

Experiments:
[1] = variants of: B1; assay: sfGFP reporter fluorescence (15 h) (µM FITC); higher = higher leak; settings: library round: Round 0; ligand: none
Method in brief: (§1)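 Readout was endpoint sfGFP fluorescence, converted to µM FITC through standard curves. Reactions were 1 μL of BL21 Star (DE3) PANOx-SP extract with pPbrR-sfGFP reporter, 30 μg/mL GamS and linear PbrR templates normalized to 5 nM, containing 1 µM lead chloride, 30 µM zinc acetate or no metal. Incubation lasted 15 hr at 30 °C, with up to three biological replicates.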

[2] = variants of: B1; assay: sfGFP reporter fluorescence (15 h) (µM FITC); higher = stronger transcriptional activation; settings: library round: Round 0
Method in brief: as §1

| Variant | sfGFP reporter fluorescence [1] | sfGFP reporter fluorescence ([2]; ligand: 1 µM Pb) | sfGFP reporter fluorescence ([2]; ligand: 30 µM Zn) |
| --- | --- | --- | --- |
| R111G | 0.0535 | 0.0623 ± 0.001 | 0.343 ± 0.0083 |
| R111H | 0.05791 ± 0.00052 | 0.0652 ± 0.0026 | 0.2344 ± 0.0013 |
| R111I | 0.0544 ± 0.00078 | 0.0662 ± 0.0013 | 0.288 ± 0.0036 |
| R111K | 0.0575 ± 0.0015 | 0.06194 ± 0.00052 | 0.149 ± 0.02 |
| R111L | 0.0552 ± 0.0013 | 0.06469 ± 0.00026 | 0.2 ± 0.016 |
| R111M | 0.05772 ± 0.00026 | 0.0623 ± 0.0026 | 0.243 ± 0.001 |
| R111N | 0.0583 | 0.0684 ± 0.00078 | 0.391 ± 0.032 |
| R111P | 0.0577 ± 0.0018 | 0.05846 ± 0.00026 | 0.0542 ± 0.0015 |
| R111Q | 0.0572 ± 0.001 | 0.0618 ± 0.0013 | 0.275 ± 0.0083 |
| R111S | 0.06102 ± 0.00026 | 0.0951 ± 0.0023 | 1.14 ± 0.11 |
| R111T | 0.0599 ± 0.00078 | 0.07752 ± 0.00026 | 0.535 ± 0.081 |
| R111V | 0.0586 ± 0.001 | 0.0744 ± 0.0021 | 0.483 ± 0.0073 |
| R111W | 0.05937 ± 0.00052 | 0.0632 ± 0.0018 | 0.189 ± 0.0042 |
| R111Y | 0.0566 ± 0.0023 | 0.0651 ± 0.00078 | 0.28 ± 0.029 |
| E112A | 0.063 ± 0.0021 | 0.0929 ± 0.0039 | 1.31 ± 0.092 |
| E112C | 0.0616 ± 0.001 | 0.0759 ± 0.0036 | 0.1508 ± 0.0013 |
| E112D | 0.0612 ± 0.0021 | 0.0722 ± 0.0026 | 0.565 ± 0.043 |
| E112F | 0.0575 ± 0.0026 | 0.0647 ± 0.0023 | 0.24 ± 0.012 |
| E112G | 0.0586 ± 0.0026 | 0.0847 ± 0.0042 | 1.23 ± 0.12 |
| E112H | 0.05882 ± 0.00026 | 0.077 ± 0.0057 | 0.424 ± 0.012 |
| E112I | 0.0542 ± 0.0015 | 0.06175 ± 0.00026 | 0.282 ± 0.021 |
| E112K | 0.0706 ± 0.00078 | 0.1164 ± 0.00078 | 2.4 ± 0.25 |

| Variant | sfGFP reporter fluorescence [1] | sfGFP reporter fluorescence ([2]; ligand: 1 µM Pb) | sfGFP reporter fluorescence ([2]; ligand: 30 µM Zn) |
| --- | --- | --- | --- |
| E112L | 0.0603 ± 0.00078 | 0.0867 ± 0.0034 | 0.851 ± 0.048 |
| E112M | 0.06212 ± 0.00026 | 0.0938 ± 0.0093 | 0.9465 ± 0.007 |
| E112N | 0.06212 ± 0.00026 | 0.079 ± 0.0029 | 1.04 ± 0.13 |
| E112P | 0.0557 ± 0.001 | 0.057 ± 0.00078 | 0.0561 |
| E112Q | 0.0627 ± 0.0015 | 0.0909 ± 0.0078 | 1.27 ± 0.082 |
| E112R | 0.0658 ± 0.00078 | 0.107 ± 0.0088 | 1.53 ± 0.029 |
| E112S | 0.0673 ± 0.00078 | 0.1083 ± 0.00078 | 1.9 ± 0.14 |
| E112T | 0.0605 | 0.0804 ± 0.0029 | 0.857 ± 0.06 |
| E112V | 0.0572 ± 0.0015 | 0.06597 ± 0.00052 | 0.343 ± 0.0078 |
| E112W | 0.0579 ± 0.0015 | 0.0627 ± 0.001 | 0.152 ± 0.014 |
| E112Y | 0.05919 ± 0.00026 | 0.06395 ± 0.00026 | 0.198 ± 0.028 |
| C114A | 0.05607 ± 0.00052 | 0.0559 ± 0.0013 | 0.0542 |
| C114D | 0.0585 ± 0.00078 | 0.0588 ± 0.0018 | 0.0564 ± 0.0036 |
| C114E | 0.05699 ± 0.00026 | 0.0579 ± 0.001 | 0.0533 ± 0.0023 |
| C114F | 0.0572 ± 0.0015 | 0.0577 ± 0.00078 | 0.053 ± 0.0013 |
| C114G | 0.052 ± 0.0015 | 0.0541 ± 0.00078 | 0.05 ± 0.00078 |
| C114H | 0.0581 ± 0.0023 | 0.0586 | 0.0563 ± 0.0034 |
| C114I | 0.05717 ± 0.00052 | 0.0942 ± 0.0015 | 0.863 ± 0.012 |
| C114K | 0.0583 ± 0.0031 | 0.0586 ± 0.001 | 0.0563 ± 0.0029 |
| C114L | 0.0561 | 0.0583 ± 0.0015 | 0.0531 ± 0.0015 |
| C114M | 0.05937 ± 0.00052 | 0.0603 ± 0.0013 | 0.0616 ± 0.0015 |
| C114N | 0.0583 ± 0.0021 | 0.0579 ± 0.0015 | 0.0546 ± 0.0015 |
